Assay results: US20250289897A1 (Eli Lilly, published 2025)
Changes are numbered by the printed parent chain.

B1: Antibody A (antibody, human IgG1, kappa, L234A L235A)
heavy: EVQLLESGGGLVQPGGSLRLSCAASGFTFSSFAMSWVRQAPGKGLEWVSAISGSGGSTYSADSVRGRFTISRDNSKNTLYLQMNSLRAEDTAVYYCAKDQGDWDFLFDYWGQGTLVTVSSASTKGPSVFPLAPSSKSTSGGTAALGCLVKDYFPEPVTVSWNSGALTSGVHTFPAVLQSSGLYSLSSVVTVPSSSLGTQTYICNVNHKPSNTKVDKRVEPKSCDKTHTCPPCPAPEAAGGPSVFLFPPKPKDTLYITREPEVTCVVVSVSHEDPEVKFNWYVDGVEVHNAKTKPREEQYNSTYRVVSVLTVLHQDWLNGKEYKCKVSNKALPAPIEKTISKAKGQPREPQVYTLPPSREEMTKNQVSLTCLVKGFYPSDIAVEWESNGQPENNYKTTPPVLDSDGSFFLYSKLTVDKSRWQQGNVFSCSVMHEALHNHYTQKSLSLSPGK
light: DIQMTQSPSFLSASVGDRVTITCRASQGISSSLAWYQQKPGKAPKLLIYTASTLQSGVPSRFSGSGSGTEFTLTISSLQPEDFATYYCQQLIYYPFTFGQGTKVEIKRTVAAPSVFIFPPSDEQLKSGTASVVCLLNNFYPREAKVQWKVDNALQSGNSQESVTEQDSKDSTYSLSSTLTLSKADYEKHKVYACEVTHQGLSSPVTKSFNRGEC
notes: IgG1 mAb
B2: Antibody C (antibody, human IgG1, kappa, L234A L235A, V domains shown)
VH: EVQLLESGGGLVQPGGSLRLSCAASGFTFSSFAMSWVRQAPGKGLEWVSAISGSGGSTYSADSVRGRFTISRDNSKNTLYLQMNSLRAEDTAVYYCAKDQGDWDFLFDYWGQGTLVTVSS
VL: DIQMTQSPSFLSASVGDRVTITCRASQGISSSLAWYQQKPGKAPKLLIYTASTLQSGVPSRFSGSGSGTEFTLTISSLQPEDFATYYCQQLNYYPFSFGQGTKVEIKR

Legend:
[1] = target: T1, human FcγRIIb (CD32b) extracellular domain (human, UniProt P31994 43-217); assay: SPR at 25 C, antibody captured on Protein A chip
T1 construct: extracellular domain
T1 sequence (looked up): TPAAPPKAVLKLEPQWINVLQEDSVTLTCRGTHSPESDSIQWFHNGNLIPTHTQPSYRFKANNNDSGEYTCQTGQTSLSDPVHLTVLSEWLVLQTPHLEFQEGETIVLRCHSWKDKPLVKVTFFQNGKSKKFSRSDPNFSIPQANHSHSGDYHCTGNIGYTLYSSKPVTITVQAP
Protocol: (§1) Briefly, the surfaces of all 4 flow cells were activated by injecting a 1:1 mixture of EDC/NHS for 7 minutes at 10 μL/minute. […] Un-reacted sites were blocked with a 7-minute injection of ethanolamine at 10 μL/minute. Injections of 2×10 μL of glycine pH 1.5 were used to remove any noncovalently associated protein.
(§2) For FcγRI binding, antibodies were diluted to 2.5 g/mL in running buffer (1x HBS-EP+, Teknova P/N H8022), and approximately 150 RU of each antibody was captured in flow cells 2 through 4 (RUcaptured). FC1 was the reference flow cell, therefore, no antibody was captured in FC1. […] Duplicate injections of each concentration were injected over all FCs at 40 μL/minute for 120 seconds followed by a 1200 second dissociation phase. Regeneration was performed by injecting 15 μL of 10 mM glycine pH 1.5 at 30 μL/minute over all FCs. Reference-subtracted data was collected as FC2-FC1, FC3-FC1, and FC4-FC1. The measurements were obtained at 25° C. The affinity (KD) was calculated using either steady state equilibrium analysis with the Scrubber 2 Biacore® Evaluation Software or a “1:1 (Langmuir) binding” model in BIA Evaluation.
(§3) For FcγRIIa, FcγRIIb, and FcγRIIIa binding, antibodies were diluted to 5 μg/mL in running buffer, and approximately 500 RU is captured in flow cells 2 through 4 (RUcaptured). FC1 is the reference flow cell. […] Duplicate injections of each concentration were injected over all FCs at 40 L/minute for 60 seconds followed by a 120 second dissociation phase. Regeneration was performed by injecting 15μL of 10 mM glycine pH 1.5 at 30 μL/minute over all FCs.

[2] = target: T2, human FcγRIIA_131H (CD32a) extracellular domain (human, UniProt P12318 34-217); assay: SPR at 25 C, antibody captured on Protein A chip
T2 construct: extracellular domain
T2 sequence (looked up): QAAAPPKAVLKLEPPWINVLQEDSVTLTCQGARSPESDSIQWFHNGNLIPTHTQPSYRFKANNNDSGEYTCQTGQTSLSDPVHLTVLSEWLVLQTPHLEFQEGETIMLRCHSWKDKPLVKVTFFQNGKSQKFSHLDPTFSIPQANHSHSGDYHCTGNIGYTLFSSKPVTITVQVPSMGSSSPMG
Protocol: as §1, §2, §3

[3] = target: T3, human FcγRI (CD64) extracellular domain (human, UniProt P12314 16-292); assay: SPR at 25 C, antibody captured on Protein A chip
T3 construct: extracellular domain; also called FcγRI ECD
Protocol: as §1, §2, §3

[4] = target: T4, human FcγRIIIA_158V (CD16a) extracellular domain (human, UniProt P08637 17-208); assay: SPR at 25 C, antibody captured on Protein A chip
T4 construct: extracellular domain
Protocol: as §1, §2, §3

[5] = target: T5, human FcγRIIA_131R (CD32a) extracellular domain (human, UniProt P12318 34-217); assay: SPR at 25 C, antibody captured on Protein A chip
T5 construct: extracellular domain
T5 sequence (looked up): T2 sequence (looked up) with H134R
Protocol: as §1, §2, §3

[6] = target: T6, human FcγRIIIA_158F (CD16a) extracellular domain (human, UniProt P08637 17-208); assay: SPR at 25 C, antibody captured on Protein A chip
T6 construct: extracellular domain
Protocol: as §1, §2, §3

[7] = target: T7, human LEPR, full length, on HEK293-STAT3Luc-hLepR1 cells (Homo sapiens, UniProt P48357 22-1165); assay: flow cytometry on live HEK293-STAT3Luc-hLepR1 cells, AF647 anti-human IgG; average of 4 runs, SD 1.0
T7 construct: also called human LEPR on live cell surface
T7 sequence: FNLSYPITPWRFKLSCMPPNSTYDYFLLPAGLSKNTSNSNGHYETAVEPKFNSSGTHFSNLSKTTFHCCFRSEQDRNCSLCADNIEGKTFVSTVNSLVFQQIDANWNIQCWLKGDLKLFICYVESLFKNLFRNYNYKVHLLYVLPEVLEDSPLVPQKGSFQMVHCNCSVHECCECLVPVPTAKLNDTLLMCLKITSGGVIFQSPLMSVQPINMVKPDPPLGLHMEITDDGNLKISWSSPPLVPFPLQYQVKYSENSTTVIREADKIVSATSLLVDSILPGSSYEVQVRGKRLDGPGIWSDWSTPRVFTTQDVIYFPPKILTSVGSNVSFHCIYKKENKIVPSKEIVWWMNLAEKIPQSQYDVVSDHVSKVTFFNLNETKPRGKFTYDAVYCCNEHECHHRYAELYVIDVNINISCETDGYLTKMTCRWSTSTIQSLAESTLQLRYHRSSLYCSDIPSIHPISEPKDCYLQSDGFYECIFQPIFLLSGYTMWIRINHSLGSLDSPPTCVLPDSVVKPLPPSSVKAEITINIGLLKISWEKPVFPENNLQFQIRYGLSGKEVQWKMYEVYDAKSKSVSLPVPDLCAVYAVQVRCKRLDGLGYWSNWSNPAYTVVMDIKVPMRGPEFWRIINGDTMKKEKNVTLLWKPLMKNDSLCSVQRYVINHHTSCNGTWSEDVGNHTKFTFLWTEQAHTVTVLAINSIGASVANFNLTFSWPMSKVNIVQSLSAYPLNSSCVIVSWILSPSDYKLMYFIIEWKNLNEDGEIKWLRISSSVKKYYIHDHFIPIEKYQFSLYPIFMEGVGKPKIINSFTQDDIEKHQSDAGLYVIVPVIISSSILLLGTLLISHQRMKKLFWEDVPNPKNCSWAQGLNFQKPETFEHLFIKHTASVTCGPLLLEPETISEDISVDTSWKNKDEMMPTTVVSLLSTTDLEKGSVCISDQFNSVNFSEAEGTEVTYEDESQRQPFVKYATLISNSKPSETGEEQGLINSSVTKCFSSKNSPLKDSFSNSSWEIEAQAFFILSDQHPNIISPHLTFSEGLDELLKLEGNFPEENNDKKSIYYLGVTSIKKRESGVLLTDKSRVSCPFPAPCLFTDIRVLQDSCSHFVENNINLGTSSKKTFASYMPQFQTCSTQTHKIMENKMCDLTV
Protocol: Cells were incubated in blocking buffer for 10 mins at room temperature. After one rinse with PBS, cells were transferred to U-bottom 96-well plate at 200 μL and 0.2˜0.26^e6 cells/well. […] Cells were then incubated with 30 μL/well of antibodies diluted in flow buffer at 1000 nM as high dose followed by 9-point dose response including 5-fold dilutions not including 0 (totaling 9 concentrations for each Antibody) for 30 minutes at 4° C. in dark.

T6 sequence (P08637 17-208): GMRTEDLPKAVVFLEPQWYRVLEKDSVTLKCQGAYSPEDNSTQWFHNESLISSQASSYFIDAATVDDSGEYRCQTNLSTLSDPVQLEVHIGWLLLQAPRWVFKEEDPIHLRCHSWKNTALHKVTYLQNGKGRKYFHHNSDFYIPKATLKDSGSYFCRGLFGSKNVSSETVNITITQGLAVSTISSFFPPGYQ
T3 sequence (P12314 16-292): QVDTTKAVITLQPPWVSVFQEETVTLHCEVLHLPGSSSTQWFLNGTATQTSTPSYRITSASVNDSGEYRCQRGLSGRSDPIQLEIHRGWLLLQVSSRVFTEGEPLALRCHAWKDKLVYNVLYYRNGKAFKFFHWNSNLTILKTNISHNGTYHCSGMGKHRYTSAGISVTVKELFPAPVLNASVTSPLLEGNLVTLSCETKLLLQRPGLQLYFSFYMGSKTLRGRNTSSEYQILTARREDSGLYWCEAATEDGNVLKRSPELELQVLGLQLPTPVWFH
T4 sequence (P08637 17-208 F176V): as the sequence (P08637 17-208) above, with F160V counted along it

| Binder | binding result [1] | binding result [2] | binding result [3] | binding result [4] | binding result [5] | binding result [6] | EC50 [7] |
| --- | --- | --- | --- | --- | --- | --- | --- |
| B1 | no binding (tested: receptor ECD tested up to 10 µM) | no binding (tested: receptor ECD tested up to 10 µM) | no binding (tested: FcγRI ECD tested up to 200 nM) | no binding (tested: receptor ECD tested up to 10 µM) | no binding (tested: receptor ECD tested up to 10 µM) | no binding (tested: receptor ECD tested up to 10 µM) |  |
| B2 |  |  |  |  |  |  | 1.33 nM |
